Assays:
1433f_human YWHAH = 1433f_human YWHAH (UniProt Q04917)
dnm1l_human DNM1L = dnm1l_human DNM1L (UniProt O00429)
Chain of dnm1l_human DNM1L (O00429 whole entry): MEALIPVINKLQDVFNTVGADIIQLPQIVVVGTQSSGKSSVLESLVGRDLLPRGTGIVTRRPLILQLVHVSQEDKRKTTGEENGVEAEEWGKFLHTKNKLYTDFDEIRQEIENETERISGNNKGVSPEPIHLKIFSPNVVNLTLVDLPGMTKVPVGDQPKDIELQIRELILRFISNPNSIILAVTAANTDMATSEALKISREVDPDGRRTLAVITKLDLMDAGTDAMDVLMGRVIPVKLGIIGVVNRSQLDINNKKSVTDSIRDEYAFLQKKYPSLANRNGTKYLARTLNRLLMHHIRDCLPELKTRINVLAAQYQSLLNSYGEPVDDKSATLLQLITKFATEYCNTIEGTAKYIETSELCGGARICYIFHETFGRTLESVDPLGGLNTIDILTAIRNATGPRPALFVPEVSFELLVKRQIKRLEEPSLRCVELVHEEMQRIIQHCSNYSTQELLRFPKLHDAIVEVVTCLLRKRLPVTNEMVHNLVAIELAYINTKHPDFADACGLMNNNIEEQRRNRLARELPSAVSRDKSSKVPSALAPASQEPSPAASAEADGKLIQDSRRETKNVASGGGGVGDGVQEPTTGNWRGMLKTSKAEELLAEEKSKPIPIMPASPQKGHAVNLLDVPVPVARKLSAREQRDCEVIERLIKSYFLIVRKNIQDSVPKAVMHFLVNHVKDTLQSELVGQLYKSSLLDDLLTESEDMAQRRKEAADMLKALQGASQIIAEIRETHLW

Chain of 1433f_human YWHAH (Q04917 whole entry): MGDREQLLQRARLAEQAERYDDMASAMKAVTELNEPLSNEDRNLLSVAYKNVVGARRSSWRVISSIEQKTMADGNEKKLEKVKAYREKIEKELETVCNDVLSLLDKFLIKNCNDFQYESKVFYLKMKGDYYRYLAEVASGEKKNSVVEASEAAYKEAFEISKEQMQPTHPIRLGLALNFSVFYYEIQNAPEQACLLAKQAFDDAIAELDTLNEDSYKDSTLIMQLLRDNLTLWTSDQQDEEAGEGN

effect of a mutation on the interaction (1433f_human YWHAH): decreasing interaction strength
effect of a mutation on the interaction (dnm1l_human DNM1L): increasing interaction strength
Substance: Leucine-rich repeat serine/threonine-protein kinase 2 (Homo sapiens), Q5S007 E193K

Source: IntAct's records for PubMed 29541021
